Laboratory results reported in paper PMC3614804.

Experiments:
FcεRIα (Homo sapiens) = FcεRIα (Homo sapiens) (UniProt P12319); assay: given as Ka; conditions: cited from earlier work
[1] = molecular target: extracellular part of FcɛRIα with the transmembrane domain of Her2 at its C-terminus, displayed on the stable CHO cell line FI5F10 (UniProt P12319); assay: flow cytometry on cells; 7.5 nM IgE alone (positive control), or preincubated with 750 nM QME5 or with equimolar Omalizumab, added to FI5F10 cells; after washing 5 μg/mL FITC_GAH IgE detects membrane-binding IgE

Substance	Kd (FcεRIα (Homo sapiens)) [nM]	percentage of positive cells (7.5 nM IgE, positive control) [1] [%]
IgE Cε3 Cε3 (from UniProt P01854)	200	–
human IgE (ligand)	–	69.1
